Test results as given in paper PMC5737657 (Nucleic Acids Research, 2017).

B1: VapC26 toxin with N-terminal (His)6 tag (native, co-expressed with VapB26) (natural protein)
chain: MIIDTSALLAYFDAAEPDHAAVSECIDSSADALVVSPYVVAELDYLVATRVGVDAELAVLRELAGGAWELANCGAAEIEQAARIVTKYQDQRIGIADAANVVLADRYRTRTILTLDRRHFSALRPIGGGRFTVIP

How the values were obtained:
VapB26 Y51E = VapB26 Y51E (Mycobacterium tuberculosis, UniProt O53778 1-71, Y51E); assay: co-purification on a Ni2+ affinity column
[1] = biological target: B1; assay: crystal structure

B1
binding result (VapB26 Y51E): binds

B2: VapB26 antitoxin (untagged, native, co-expressed with VapC26) (natural protein)
chain: MDKTTVYLPDELKAAVKRAARQRGVSEAQVIRESIRAAVGGAKPPPRGGLYAGSEPIARRVDELLAGFGER
binding result [1]: binds
